Assay [1] addresses PRMT1 E27 (N-terminal truncation lacking the first 26 amino acids) (UniProt Q99873). Briefly: native gel or EMSA.
Assay [2] deals with PRMT1 S14 (N-terminal truncation lacking the first 13 amino acids) (UniProt Q99873). Description: native gel or EMSA. (In EMSA bound probe runs differently from free probe, usually more slowly.)

Broadly, the stoichiometry N is a count of units in the complex or per binding partner. The substance “PRMT1 E27 (N-terminal truncation lacking the first 26 amino acids) (from UniProt Q99873-3 27-353) (domain or fragment)” yielded a stoichiometry N in assay [1] of 4. For the substance “PRMT1 S14 (N-terminal truncation lacking the first 13 amino acids) (from UniProt Q99873-3 14-353) (domain or fragment)”, the stoichiometry N in assay [2] amounted to 4.
